Results reported in patent US20230192834A1.
Substitutions are numbered along the chain they refer to.

T1: TGFβ2 (R&D Systems)
T1 sequence (P61812 303-414, species assumed, looked up): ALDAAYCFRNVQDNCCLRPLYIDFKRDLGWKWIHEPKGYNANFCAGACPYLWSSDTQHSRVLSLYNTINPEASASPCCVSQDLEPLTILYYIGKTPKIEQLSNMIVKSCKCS

T2: TGFβ3 (R&D Systems)
T2 sequence (P10600 301-412, species assumed, looked up): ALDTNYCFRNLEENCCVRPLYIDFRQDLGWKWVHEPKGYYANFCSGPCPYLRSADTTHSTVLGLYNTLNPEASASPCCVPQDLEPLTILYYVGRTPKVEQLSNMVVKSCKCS

B1: Caninized anti-TGFβ1,2,3 antibody VH4.11 - VL3 (antibody, V domains shown)
VH: QVQLVQSGAEVKKPGSSVKVSCKASGYTFSSNVISWVRQAPGKGLQWVGGVIPIVDIANYAQRFKGRVTLTADTSTNTVYMELSNLRTEDTAVYYCARTLGLVLDAMDYWGQGTLVTVSS
VL: EIVMTQSPASLSLSQEEKVTITCRASQSLGSSYLAWYQQKPGQAPKLLIYGASSRAPGVPSRFSGSGSGTDFSFTISSLEPEDVAVYYCQQYADSPITFGQGTKLEIKR
B2: Caninized anti-TGFβ1,2,3 antibody VH4.11 - VL2 (antibody, V domains shown)
VH: B1 VH
VL: ETVLTQSPGTLSLSPGERATLSCRASQSLGSSYLAWYQQKPGQAPRLLIYGASSRAPGVPARFSGSGSGTDFTLTISSLEPEDFAVYYCQQYADSPITFGQGTKLEIKR
B3: Caninized anti-TGFβ1,2,3 antibody VH3.1 - VL3 (antibody, V domains shown)
VH: DVQLVESGGDLVKPGGSLRLTCVASGYTFSSNVMHWVRQAPGKGLQWVAYVIPIVDIAYYADSVKGRFTISIDNSKNTLYLQMNSLKTEDTATYYCARTLGLVLDAMDYWGQGTLVTVSS
VL: B1 VL
B4: Caninized anti-TGFβ1,2,3 antibody VH5.10 - VL3 (antibody, V domains shown)
VH: EVQLVESGGDLVKPGGSLRLSCVASGFTFSSNVISWVRQAPGQGLEWMGGVIPIVDIANYAQRFKGRVTLTADTSTNTVYMELSNLRTEDTAVYYCARTLGLVLDAMDYWGQGTLVTVSS
VL: B1 VL
B5: Caninized anti-TGFβ1,2,3 antibody VH4.7 - VL2 (antibody, V domains shown)
VH: B1 VH with L70I, T74E, N77S, V79T, N85S, T88S, R98S
VL: B2 VL
B6: Felinized anti-TGFβ1,2,3 antibody VH2.2 - VL3 (antibody, V domains shown)
VH: QVLLVQSGADVRKPGASVKIFCKASGYTFSSNVMHWVRQTPAQGFEWMGSVIPIVDIATYARRFQGRLVLTADTSTNTAYMELRSLKSADTAVYYCARTLGLVLDAMDYWGQGSLVTVSS
VL: EIQMTQSPSSLSASPGDRVTITCRASQSLGSSYLAWYQQKPGKVPKLLIYGASSRAPGVPSRFSGSGSGTDFTLTISSLEPEDAATYYCQQYADSPITFGQGTKLEIKR
B7: Caninized anti-TGFβ1,2,3 antibody VH4.5 - VL1 (antibody, V domains shown)
VH: EVQLVESGGDLVKPAGSLRLSCVASGYTFSSNVMSWVRQAPGKGLQWVGYVIPIVDIANYADAVKGRFTISRDNAKNTLYLQMNSLRVEDTAVYYCTRTLGLVLDAMDYWGQGTLVTVSS
VL: B2 VL with V59I, A61D, S78R, K104R
B8: Caninized anti-TGFβ1,2,3 antibody VH3.6 - VL2 (antibody, V domains shown)
VH: EVQLVQSAAEVKKPGASVKVSCKTSGYIFISNVISWVRQAPGQGLEWMGGVIPIVDIANYAQRFKGRVTITADESTSTTYMELSSLRSEDTAVYYCASTLGLVLDAMDYWGQGTLVTVSS
VL: B2 VL
B9: Caninized anti-TGFβ1,2,3 antibody VH3.1 - VL2 (ZTS-122) (antibody, V domains shown)
VH: B3 VH
VL: B2 VL
B10: Caninized anti-TGFβ1,2,3 antibody VH4.5 - VL2 (ZTS-207) (antibody, V domains shown)
VH: B7 VH
VL: B2 VL
B11: Caninized anti-TGFβ1,2,3 antibody VH5.6 - VL2 (antibody, V domains shown)
VH: B4 VH with L70I, T74E, N77S, V79T, N85S, T88S, R98S
VL: B2 VL
B12: human: feline GC1008 chimera felchimGC1008 (antibody, V domains shown)
VH: QVQLVQSGAEVKKPGSSVKVSCTASGYTPSSNVISNVRQAPGQGLENNGGVIPIVDIANYAQRPKGRVTITADESTSTTYHELSSLRSEDTAVYYCASTLGLVLDAMDYHGQGTLVTVSS
VL: B2 VL with V59I, A61D, S78R, K104R
B13: Caninized anti-TGFβ1,2,3 antibody VH3.5 - VL2 (antibody, V domains shown)
VH: B8 VH with R38Q, Q43A, I70L, E74T, S77N, T79V, S85N, S88T
VL: B2 VL
B14: Felinized anti-TGFβ1,2,3 antibody VH2.8 - VL6 (antibody, V domains shown)
VH: QVQLVQSGAEVKKPGSSVKVSCKASGYTFSSNVISWVRQTPAQGFEWMGGVIPIVDIANYAQRFKGRLVLTADTSTNTAYMELRSLKSADTAVYYCASTLGLVLDAMDYWGQGTLVTVSS
VL: QSVLTQPPSVSGSLGQRVTISCRASQSLGSSYLAWYQQVPGRAPRLLIYGASSRAPGIPDRFSGSKSGTSGSLTITGLEADDEADYYCQQYADSPITFGGGTHLTVLG

What was measured:
TGFβ1 (R&D Systems) [1] = experiment: SPR (Biacore T200), TGFβ amine-coupled to chip, 1:1 fit
TGFβ1 (R&D Systems), sequence (P01137 279-390): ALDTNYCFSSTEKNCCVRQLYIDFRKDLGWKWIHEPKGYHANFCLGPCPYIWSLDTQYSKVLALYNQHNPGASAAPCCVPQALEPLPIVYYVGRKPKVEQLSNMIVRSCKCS

TGFβ2 (R&D Systems) [2] = target: T1, TGFβ2 (R&D Systems); experiment: as above
TGFβ3 (R&D Systems) [3] = target: T2, TGFβ3 (R&D Systems); experiment: as above
TGFβ1 (R&D Systems) [4] = experiment: cell-based or functional assay
TGFβ2 (R&D Systems) [5] = target: T1, TGFβ2 (R&D Systems); experiment: cell-based or functional assay
TGFβ3 (R&D Systems) [6] = target: T2, TGFβ3 (R&D Systems); experiment: cell-based or functional assay

Row | Binder | Kd (TGFβ1 (R&D Systems) [1]) | Kd (TGFβ2 (R&D Systems) [2]) | Kd (TGFβ3 (R&D Systems) [3]) | TGFb1 IC50 (SMAD3 phosphorylation in CMVICs, AlphaLISA) (TGFβ1 (R&D Systems) [4]) | TGFb2 IC50 (SMAD3 phosphorylation in CMVICs, AlphaLISA) (TGFβ2 (R&D Systems) [5]) | TGFb3 IC50 (SMAD3 phosphorylation in CMVICs, AlphaLISA) (TGFβ3 (R&D Systems) [6])
1 | B1 | 7.14 nM | 5.15 nM | 2.5 nM | 1.01 µg/mL | 16.7 µg/mL | 0.575 µg/mL
2 | B2 | 4.98 nM | 3.77 nM | 2.1 nM | 0.164 µg/mL | 8.48 µg/mL | 0.375 µg/mL
3 | B3 | 7.52 nM | 3.91 nM | 0.981 nM | 0.134 µg/mL | 0.954 µg/mL | 0.034 µg/mL
4 | B4 | 5.23 nM | 3.57 nM | 1.5 nM | 0.232 µg/mL | 5.47 µg/mL | 0.113 µg/mL
5 | B5 | 2.61 nM | 1.99 nM | 1.2 nM | 0.071 µg/mL | 0.81 µg/mL | 
6 | B6 | 3.31 nM | 2.39 nM | 3.49 nM | 0.24 µg/mL | 1.2 µg/mL | 
7 | B7 | 2.57 nM | 1.56 nM | 0.475 nM | 0.122 µg/mL | 0.609 µg/mL | 0.062 µg/mL
8 | B8 | 4.39 nM | 3.42 nM | 1.49 nM | 0.057 µg/mL | 0.459 µg/mL | 0.203 µg/mL
9 | B9 | 5.6 nM | 3.37 nM | 1.12 nM | 0.061 µg/mL | 0.508 µg/mL | 0.092 µg/mL
10 | B10 | 2.3 nM | 1.4 nM | 0.43 nM | 0.06 µg/mL | 0.285 µg/mL | 0.02 µg/mL
11 | B11 | 3.68 nM | 2.6 nM | 1.67 nM | 0.019 µg/mL | 0.691 µg/mL | 0.056 µg/mL
12 | B12 | 2.58 nM | 1.88 nM | 2.35 nM | 0.176 µg/mL | 0.167 µg/mL | 0.053 µg/mL
13 | B13 | 4.37 nM | 3.56 nM | 1.91 nM | 0.083 µg/mL | 9.41 µg/mL | 0.981 µg/mL
14 | B14 | 2.95 nM | 1.72 nM | 2.41 nM | 0.969 µg/mL | 0.547 µg/mL | 
